Measurements published in US20260167740A1, “MEANS AND METHODS FOR TREATING CASTRATION-RESISTANT PROSTATE CANCER” (Merus N.V., priority 2022, published 2026).

Experiments:
Assay type in all cases: in vivo, human
[1] = Phase II clinical study of zenocutuzumab with an AR axis-targeting agent in mCRPC patients: safety; conditions: cohort of ten mCRPC patients
Description: (§1) This is a Phase II, open-label, multicenter, international study designed to evaluate the efficacy of zenocutuzumab in patients with metastatic mCRPC with evidence of disease progression in accordance with Prostate Cancer Clinical Trials Working Group 3 (PCWG3) criteria on the last line of prior hormonal therapy that included either the second-generation AR antagonist enzalutamide or the androgen synthesis inhibitor abiraterone acetate. Patients will be enrolled and will receive zenocutuzumab in combination with the AR targeting agent on which they experienced disease progression immediately before study entry. A cohort of patients with […] and tensin homolog (PTEN) wild-type status will be enrolled. A safety run-in will be performed in the first 4 to 6 patients.
(§2) Zenocutuzumab will be administered as a 2-hour IV infusion on Day 1, then Q2W of every 28-day cycle. A flat dose of 750 mg will be administered.
(§3) Patients will receive zenocutuzumab in combination with one of the following next generation AR signaling inhibitors that the patient was receiving immediately prior to entering the study: • Abiraterone acetate (ZYTIGA®) 1000 mg PO QD in combination with prednisone 5 mg PO twice daily (BID). • Enzalutamide (XTANDIR) 160 mg PO QD.
(§4) Eligible patients will be enrolled and will receive sequential treatment cycles, with a treatment cycle being 4 weeks (28 days). All patients will receive zenocutuzumab with a flat dose of 750 mg IV Q2W.
(§5) Following the clinical trial protocol of Example 2, mCRPC patients with histologically confirmed prostate adenocarcinoma were enrolled. Patients who were progressing on either abiraterone acetate or enzalutamide were continued on their backbone AR axis-targeting agents after study enrollment and received treatment with zenocutuzumab in combination. Sites of metastatic involvement included lymph nodes, bone, and/or visceral organs. PTEN status of tumors was established in patients by IHC when sufficient biological material was available, using Roche Ventana Optiview kit DAB and SP218 PTEN antibody using Benchmark Ultra immunohistochemical automated slide stainer. The OptiView DAB IHC Detection Kit (OptiView) is an indirect, biotin-free system for detecting mouse IgG, mouse IgM and rabbit primary antibodies. The kit is intended to identify targets by IHC in sections of formalin-fixed, paraffin-embedded and frozen tissue that are stained on the VENTANA automated slide stainers and visualized by light microscopy. The clinical interpretation of any staining, or the absence of staining, is complemented by morphological studies and evaluation of proper controls.
Among a cohort of ten patients treated, treatment-emergent adverse events (TEAE) related to study treatment classified as a Grade 3 TEAE or higher were not observed.

[2] = test system: castration-resistant prostate cancer; test: Phase II clinical study of zenocutuzumab with an AR axis-targeting agent in mCRPC patients: tumor response (RECIST v1.1 / PCWG3)
Description: as §1, §2, §3, §4
Radiological measurement of tumors to assess antitumor effect of zenocutuzumab will be performed by CT scan or MRI. Imaging will be performed according to standard local practice and data will be collected in the electronic case report form. Imaging of all patients will be assessed by the local investigator.
Whole body bone scintigraphy will be performed every 8 weeks for the first 12 months of treatment and every 12 weeks thereafter. Tumor assessments will be completed according to PCWG3-modified RECIST criteria.
as §5

[3] = Single-agent treatment of over 100 patients with MF3958×MF3178: tolerability and immunogenicity
[4] = zenocutuzumab in combination with abiraterone acetate or enzalutamide
[5] = Example 4: person with mCRPC, combination with enzalutamide, 6 months
[6] = Example 5: person with mCRPC, PTEN loss, combination with abiraterone acetate/prednisone, 4 months

Substance: zenocutuzumab: Full length IgG1 bispecific antibody comprising MF3958×MF3178, targeting ERBB2 and ERBB3
- treatment-emergent adverse events (TEAE) related to study treatment classified as Grade 3 TEAE or higher ([1]; zenocutuzumab 750 mg IV Q2W in combination with abiraterone acetate or enzalutamide): not observed
- infusion-related reactions (IRR) reported [1, 4]: a single IRR was reported (i.e. Grade 2, related)
- safety concerns [1, 4]: no safety concerns
- tolerability of the combination [1, 4]: very well tolerated
- treatment discontinuation due to an adverse event [1, 4]: no treatment discontinuation
- unexpected signals of toxicity [1, 4]: nor were any unexpected signals of toxicity reported
- radiographic progression (lymph node) ([2]; Example 4: combination with enzalutamide, after six months of on-going treatment): no evidence of lymph node progression
- best overall response by RECIST [2, 5]: stable disease
- response by bone scans by PCWG3 [2, 5]: no evidence of disease (NED)
- radiographic progression (lymph node or bone) ([2]; Example 5: combination with abiraterone acetate/prednisone, after five months of on-going treatment): no evidence of lymph node or bone progression
- best overall response by RECIST [2, 6]: stable disease
- response by bone scans by PCWG3 [2, 6]: stable disease
- best overall response by measurement of target lesions (lymph nodes) under RECIST v1.1 per investigator ([2]; Example 6: person with mCRPC, PTEN wildtype, combination with enzalutamide): stable disease
- risk for immunogenicity [3]: low risk for immunogenicity
- tolerability as a single agent [3]: well tolerated
